Biological target: F-actin from rabbit skeletal muscle (rabbit, UniProt P68135 1-377)
Experiment: co-sedimentation

Kd: 10.7 µM
B1: mouse short form C0-C2, C-terminal tagged (mSF1), lacking the 8 amino acid NTE (domain or fragment)
chain: PEPGKKPVSAFNKKPRSAEVTAGSAAVFEAETERSGVMVRWQRDGSDITANDKYGLAAEGKRHTLTVRDASPDDQGSYAVIAGSSKVKFDLKVTEPAPPEKAESEVAPGAPEEVPAPATELEESVSSPEGSVSVTQDGSAAEHQGAPDDPIGLFLMRPQDGEVTVGGSIVFSARVAGASLLKPPVVKWFKGKWVDLSSKVGQHLQLHDSYDRASKVYLFELHITDAQTTSAGGYRCEVSTKDKFDSCNFNLTVHEAIGSGDLDLRSAFRRTSLAGAGRRTSDSHEDAGTPDFSSLLKKRDSFRRDSKLEAPAEEDVWEILRQAPPSEYERIAFQHGVEACHRPLKRLKGMKQDEKKSTAFQKKLEPAYQVNKGHKIRLTVELADPDAEVKWLKNGQEIQMSGSKYIFESVGAKRTLTISQCSLADDAAYQCVVGGEKCSTELFVKEP
